Measured values reported in IntAct's records for PubMed 15226396.

B1: Tyrosine-protein phosphatase non-receptor type 1 (Gallus gallus (Chicken)), O13016 (parent)
chain: MEIEKEFHRLDQAASWAAIYQDIRHEASDFPCKVAKHPRNKNRNRYRDVSPFDHSRIKLNQGDNDYINASLIKMEEAQRSYILTQGPLPNTCGHFWEMVWEQKSRGVVMLNRVMEKGSIKCAQYWPRKEEKEMFFEDTNLKLTLISEDIKSYYTVRQLELENLTTQETREILHFHYTTWPDFGVPESPASFLNFLFKVRESGSLNPEYGPVVVHCSAGIGRSGTFCLVDTCLLLMDKRKDPSSVDVKQVLLEMRKYRMGLIQTADQLRFSYLAVIEGAKFIMGDASVQEQWKELSNEDLDPPPEHTPPPPRPPKRTSEMHNGRMHEHAEFFPKHQVVEEEIRCSVSTAEETVSDGRVFSSVPLITDSTSQDTEIRRRTVGENLHVTAHKEESKSESVEEDDENMMTTWKPFLVNICMFTFLTAGAYLCYRVCFH

Variants of: B1
Details: with fer_human FER

| Variant | effect of a mutation on the interaction |
| --- | --- |
| Y152F | disrupting interaction |
| C215S | disrupting interaction |
